Assay results from patent publication US20220235136A1, “METHODS AND COMPOSITIONS FOR TREATING A DISEASE OR DISORDER” (YALE UNIVERSITY, priority 2019, published 2022).

Experiments:
[1] = biological target: CD141; assay: flow cytometry, HEK293T cells transfected with CD141 stained with IGFBP7-Ig; dashed = transfectant, solid = WT 293T; histograms overlie
[2] = biological target: CLEC14A on transfected HEK293T cells; assay: flow cytometry, HEK293T cells transfected with CLEC14A stained with IGFBP7-Ig; dashed = transfectant, solid = WT 293T; histograms nearly overlie; the text tells this pair as not binding
[3] = biological target: CD248 on transfected HEK293T cells; assay: flow cytometry, HEK293T cells transfected with CD248 stained with IGFBP7-Ig; dashed = transfectant, solid = WT 293T; histograms overlie; the text tells this pair as not binding
[4] = biological target: CD93 on cells in Example 20 (transfected HEK293T cells, FIG. 28A; CHO cells stably expressing CD93, FIG. 28B); species not stated; assay: flow cytometry, HEK293T cells transfected with CD93 stained with IGFBP7-Ig; dashed = transfectant, solid = WT 293T
[5] = biological target: CD93 on cells in Example 20 (transfected HEK293T cells, FIG. 28A; CHO cells stably expressing CD93, FIG. 28B); species not stated; assay: flow cytometry, CHO cells stably expressing CD93 stained with IGFBP7-Ig (dashed) or Control (solid) in the presence of MMRN2 (panel '+MMRN2', form of the MMRN2 not stated); bar chart of MFI beside it marked ns against 'None'
[6] = biological target: CD93 on cells in Example 20 (transfected HEK293T cells, FIG. 28A; CHO cells stably expressing CD93, FIG. 28B); species not stated; assay: flow cytometry, CHO cells stably expressing CD93 stained with IGFBP7-Ig (dashed) or Control (solid), no competitor
[7] = biological target: CLEC14A on transfected HEK293T cells; assay: flow cytometry, HEK293T cells transfected with CLEC14A stained with MMRN2-Ig; dashed = transfectant, solid = WT 293T
[8] = biological target: CD93 on cells in Example 20 (transfected HEK293T cells, FIG. 28A; CHO cells stably expressing CD93, FIG. 28B); species not stated; assay: flow cytometry, CHO cells stably expressing CD93 stained with MMRN2-Ig (dashed) or Control (solid) in the presence of IGFBP7-His protein (panel '+IGFBP7'); bar chart of MFI beside it marked ns against 'None'
[9] = biological target: CD93 on cells in Example 20 (transfected HEK293T cells, FIG. 28A; CHO cells stably expressing CD93, FIG. 28B); species not stated; assay: flow cytometry, CHO cells stably expressing CD93 stained with MMRN2-Ig (dashed) or Control (solid), no competitor
[10] = biological target: CD141; assay: flow cytometry, HEK293T cells transfected with CD141 stained with MMRN2-Ig; dashed = transfectant, solid = WT 293T; histograms nearly overlie
[11] = biological target: CD248 on transfected HEK293T cells; assay: flow cytometry, HEK293T cells transfected with CD248 stained with MMRN2-Ig; dashed = transfectant, solid = WT 293T
[12] = biological target: CD93 on cells in Example 20 (transfected HEK293T cells, FIG. 28A; CHO cells stably expressing CD93, FIG. 28B); species not stated; assay: flow cytometry, HEK293T cells transfected with CD93 stained with MMRN2-Ig; dashed = transfectant, solid = WT 293T

Chain of CD93 on cells in Example 20 (transfected HEK293T cells, FIG. 28A; CHO cells stably expressing CD93, FIG. 28B); species not stated (Q9NPY3 22-652): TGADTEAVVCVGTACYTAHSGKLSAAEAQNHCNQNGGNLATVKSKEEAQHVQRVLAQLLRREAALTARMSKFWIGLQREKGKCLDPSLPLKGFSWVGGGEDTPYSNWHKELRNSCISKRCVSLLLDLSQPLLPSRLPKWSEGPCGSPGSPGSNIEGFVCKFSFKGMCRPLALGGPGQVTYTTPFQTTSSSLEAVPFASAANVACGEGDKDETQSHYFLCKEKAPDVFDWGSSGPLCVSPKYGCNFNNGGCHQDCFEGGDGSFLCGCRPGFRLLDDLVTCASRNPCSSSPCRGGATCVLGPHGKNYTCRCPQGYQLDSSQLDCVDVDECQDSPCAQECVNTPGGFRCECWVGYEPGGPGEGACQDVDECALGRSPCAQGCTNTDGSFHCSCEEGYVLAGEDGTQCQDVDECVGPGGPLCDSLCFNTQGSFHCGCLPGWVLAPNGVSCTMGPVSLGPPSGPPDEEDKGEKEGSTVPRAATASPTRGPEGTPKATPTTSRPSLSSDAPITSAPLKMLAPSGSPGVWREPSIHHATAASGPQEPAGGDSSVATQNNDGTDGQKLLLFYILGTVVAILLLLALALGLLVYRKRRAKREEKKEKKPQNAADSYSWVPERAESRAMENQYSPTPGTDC
Chain of IGFBP7-Ig (Example 20, FIG. 28A and 28E; species not stated) (Fc fusion) (Q16270 27-282): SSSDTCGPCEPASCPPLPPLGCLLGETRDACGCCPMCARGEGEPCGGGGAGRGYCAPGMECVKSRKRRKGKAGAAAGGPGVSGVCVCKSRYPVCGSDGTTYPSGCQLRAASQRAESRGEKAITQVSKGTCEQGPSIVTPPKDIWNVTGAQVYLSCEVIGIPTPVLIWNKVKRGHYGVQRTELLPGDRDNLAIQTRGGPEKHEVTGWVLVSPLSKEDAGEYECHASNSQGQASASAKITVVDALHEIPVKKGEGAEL
Chain of CD248 on transfected HEK293T cells (Q9HCU0 18-757): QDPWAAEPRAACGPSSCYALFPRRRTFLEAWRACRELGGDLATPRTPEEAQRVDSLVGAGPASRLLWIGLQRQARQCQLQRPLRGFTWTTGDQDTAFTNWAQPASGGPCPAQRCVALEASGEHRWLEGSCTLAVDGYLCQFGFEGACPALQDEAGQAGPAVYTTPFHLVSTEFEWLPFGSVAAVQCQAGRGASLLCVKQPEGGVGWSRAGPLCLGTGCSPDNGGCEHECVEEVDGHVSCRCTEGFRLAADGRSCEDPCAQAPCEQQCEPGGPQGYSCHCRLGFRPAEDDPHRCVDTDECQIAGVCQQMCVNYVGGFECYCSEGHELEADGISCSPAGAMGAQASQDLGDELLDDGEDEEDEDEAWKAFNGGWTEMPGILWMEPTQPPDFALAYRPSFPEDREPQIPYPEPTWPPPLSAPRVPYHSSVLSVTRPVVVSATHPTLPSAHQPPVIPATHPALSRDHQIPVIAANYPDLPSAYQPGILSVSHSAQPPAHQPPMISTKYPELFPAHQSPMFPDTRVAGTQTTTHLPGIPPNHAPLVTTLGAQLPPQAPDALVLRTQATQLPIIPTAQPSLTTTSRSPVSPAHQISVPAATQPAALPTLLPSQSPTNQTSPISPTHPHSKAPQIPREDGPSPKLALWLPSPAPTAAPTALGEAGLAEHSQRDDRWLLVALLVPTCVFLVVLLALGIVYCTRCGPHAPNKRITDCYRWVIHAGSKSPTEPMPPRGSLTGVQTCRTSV
Chain of CD141 (P07204 19-575): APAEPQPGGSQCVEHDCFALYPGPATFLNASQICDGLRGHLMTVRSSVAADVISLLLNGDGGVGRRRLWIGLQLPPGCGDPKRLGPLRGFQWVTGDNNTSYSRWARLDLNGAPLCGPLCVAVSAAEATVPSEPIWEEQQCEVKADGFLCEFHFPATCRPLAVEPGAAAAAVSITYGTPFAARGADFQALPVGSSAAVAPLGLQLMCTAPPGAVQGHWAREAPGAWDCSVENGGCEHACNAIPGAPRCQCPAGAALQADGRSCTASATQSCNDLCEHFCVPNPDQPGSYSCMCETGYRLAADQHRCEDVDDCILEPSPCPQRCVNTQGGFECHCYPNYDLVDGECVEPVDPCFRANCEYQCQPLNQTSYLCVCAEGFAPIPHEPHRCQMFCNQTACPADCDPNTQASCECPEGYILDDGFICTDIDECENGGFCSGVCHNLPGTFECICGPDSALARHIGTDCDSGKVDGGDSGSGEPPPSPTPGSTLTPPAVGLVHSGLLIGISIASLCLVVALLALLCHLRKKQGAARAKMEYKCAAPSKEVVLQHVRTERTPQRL
Chain of CLEC14A on transfected HEK293T cells (Q86T13 22-490): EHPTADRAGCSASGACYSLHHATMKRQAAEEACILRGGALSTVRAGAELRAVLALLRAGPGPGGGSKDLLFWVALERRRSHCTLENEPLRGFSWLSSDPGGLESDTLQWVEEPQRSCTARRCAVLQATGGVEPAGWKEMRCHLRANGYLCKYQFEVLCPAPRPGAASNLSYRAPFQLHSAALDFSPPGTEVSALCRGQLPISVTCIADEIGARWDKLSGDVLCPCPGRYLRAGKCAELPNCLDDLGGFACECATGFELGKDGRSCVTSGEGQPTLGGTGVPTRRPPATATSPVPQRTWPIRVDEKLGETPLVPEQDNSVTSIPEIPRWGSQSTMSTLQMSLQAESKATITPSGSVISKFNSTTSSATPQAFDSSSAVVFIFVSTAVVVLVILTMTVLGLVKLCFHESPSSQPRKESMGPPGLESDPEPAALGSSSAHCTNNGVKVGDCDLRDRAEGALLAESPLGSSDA

| number printed over the positive gate of the histogram (percent of cells, unit not given) [1] | number printed over the positive gate of the histogram (percent of cells, unit not given) [2] | number printed over the positive gate of the histogram (percent of cells, unit not given) [3] | number printed over the positive gate of the histogram (percent of cells, unit not given) [4] | number printed over the positive gate of the histogram (percent of cells, unit not given) [5] | number printed over the positive gate of the histogram (percent of cells, unit not given) [6] | number printed over the positive gate of the histogram (percent of cells, unit not given) [7] | number printed over the positive gate of the histogram (percent of cells, unit not given) [8] | number printed over the positive gate of the histogram (percent of cells, unit not given) [9] | number printed over the positive gate of the histogram (percent of cells, unit not given) [10] | number printed over the positive gate of the histogram (percent of cells, unit not given) [11] | number printed over the positive gate of the histogram (percent of cells, unit not given) [12] | Substance |
| --- | --- | --- | --- | --- | --- | --- | --- | --- | --- | --- | --- | --- |
| 2.42 | 5.45 | 3.07 | 28.2 | 67.2 | 67 | – | – | – | – | – | – | IGFBP7-Ig (Example 20, FIG. 28A and 28E; species not stated) (Fc fusion) |
| – | – | – | – | – | – | 25.6 | 93.8 | 94.6 | 2.36 | 13.3 | 52.6 | MMRN2-Ig (Fc fusion) |
